Here are results for eight sequences from the supplement of paper PMC5998384.

The test system of data set [1] is HeLa Kyoto. Put plainly: solubility in G1/S (NP-40 vs SDS abundance) (log2 ratio); higher = more soluble. The note with it: cell cycle stage: G1/S.
In data set [2] the test system is HeLa Kyoto. Put plainly: thermal stability score vs G1/S (z-score of summed log2 fold changes over temperatures); higher = more thermally stable than in G1/S.
Data set [3] concerns HeLa Kyoto. Put plainly: solubility change mitosis vs G1/S (difference of NP-40 vs SDS log2 ratios) (log2 ratio difference); higher = more soluble in mitosis.
The subject of data set [4] is HeLa Kyoto. Nature of the data set: melting temperature (median over replicates), in situ; higher = more thermally stable.
Where [5] appears, read: cell cycle stage: early G1 (4.5 h after nocodazole release).
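For melting temperature (median over replicates), in situ in this document: HeLa Kyoto cells synchronized by double thymidine or nocodazole block, proteins quantified by TMT10plex mass spectrometry, three independent biological replicates.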
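For solubility change mitosis vs G1/S (difference of NP-40 vs SDS log2 ratios) in this document: synchronized HeLa Kyoto cells (double thymidine block for G1/S, nocodazole release for mitosis), protein amounts in NP-40 versus SDS lysates quantified by mass spectrometry, three biological replicates.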
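For solubility in G1/S (NP-40 vs SDS abundance) in this document: HeLa Kyoto cells arrested at G1/S by double thymidine block, proteins quantified by TMT10plex mass spectrometry in mild NP-40 versus SDS extracts, three biological replicates.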
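For thermal stability score vs G1/S (z-score of summed log2 fold changes over temperatures) in this document: synchronized HeLa Kyoto cells, proteins quantified by TMT10plex mass spectrometry, three biological replicates, mitosis taken 0.5 h after nocodazole release, G1/S directly after double thymidine block.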

Regarding “MASPPHQQLLHHHSTEVSCDSSGDSNSVRVKINPKQLSSNSHPKHCKYSISSSCSSSGDSGGVPRRVGGGGRLRRQKKLPQLFERASSRWWDPKFDSVNLEEACLERCFPQTQRRFRYALFYIGFACLLWSIYFAVHMRSRLIVMVAPALCFLLVCVGFFLFTFTKLYARHYAWTSLALTLLVFALTLAAQFQVLTPVSGRGDSSNLTATARPTDTCLSQVGSFSMCIEVLFLLYTVMHLPLYLSLCLGVAYSVLFETFGYHFRDEACFPSPGAGALHWELLSRGLLHGCIHAIGVHLFVMSQVRSRSTFLKVGQSIMHGKDLEVEKALKERMIHSVMPRIIADDLMKQGDEESENSVKRHATSSPKNRKKKSSIQKAPIAFRPFKMQQIEEVSILFADIVGFTKMSANKSAHALVGLLNDLFGRFDRLCEETKCEKISTLGDCYYCVAGCPEPRADHAYCCIEMGLGMIKAIEQFCQEKKEMVNMRVGVHTGTVLCGILGMRRFKFDVWSNDVNLANLMEQLGVAGKVHISEATAKYLDDRYEMEDGKVIERLGQSVVADQLKGLKTYLISGQRAKESRCSCAEALLSGFEVIDGSQVSSGPRGQGTASSGNVSDLAQTVKTFDNLKTCPSCGITFAPKSEAGAEGGAPQNGCQDEHKNSTKASGGPNPKTQNGLLSPPQEEKLTNSQTSLCEILQEKGRWAGVSLDQSALLPLRFKNIREKTDAHFVDVIKEDSLMKDYFFKPPINQFSLNFLDQELERSYRTSYQEEVIKNSPVKTFASPTFSSLLDVFLSTTVFLTLSTTCFLKYEAATVPPPPAALAVFSAALLLEVLSLAVSIRMVFFLEDVMACTKRLLEWIAGWLPRHCIGAILVSLPALAVYSHVTSEYETNIHFPVFTGSAALIAVVHYCNFCQLSSWMRSSLATVVGAGPLLLLYVSLCPDSSVLTSPLDAVQNFSSERNPCNSSVPRDLRRPASLIGQEVVLVFFLLLLLVWFLNREFEVSYRLHYHGDVEADLHRTKIQSMRDQADWLLRNIIPYHVAEQLKVSQTYSKNHDSGGVIFASIVNFSEFYEENYEGGKECYRVLNELIGDFDELLSKPDYSSIEKIKTIGATYMAASGLNTAQAQDGSHPQEHLQILFEFAKEMMRVVDDFNNNMLWFNFKLRVGFNHGPLTAGVIGTTKLLYDIWGDTVNIASRMDTTGVECRIQVSEESYRVLSKMGYDFDYRGTVNVKGKGQMKTYLYPKCTDHRVIPQHQLSISPDIRVQVDGSIGRSPTDEIANLVPSVQYVDKTSLGSDSSTQAKDAHLSPKRPWKEPVKAEERGRFGKAIEKDDCDETGIEEANELTKLNVSKSV [ADCY9]”, in the data set on HeLa Kyoto [1], the “solubility in G1/S (log2)” value was -0.0462. Moreover, the thermal stability score in the data set with HeLa Kyoto [2] (setting [5]) is 0.368; with HeLa Kyoto [2] (cell cycle stage: mitosis), -0.65. The “solubility change mitosis (log2)” value in the data set on HeLa Kyoto [3] was -0.172. The melting temperature came out at 52.3 °C with HeLa Kyoto [4] (cell cycle stage: G1/S) and 52 °C in the data set with HeLa Kyoto [4] (cell cycle stage: mitosis).
For the sequence “MASRGATRPNGPNTGNKICQFKLVLLGESAVGKSSLVLRFVKGQFHEFQESTIGAAFLTQTVCLDDTTVKFEIWDTAGQERYHSLAPMYYRGAQAAIVVYDITNEESFARAKNWVKELQRQASPNIVIALSGNKADLANKRAVDFQEAQSYADDNSLLFMETSAKTSMNVNEIFMAIAKKLPKNEPQNPGANSARGRGVDLTEPTQPTRNQCCSN [RAB5A]”, the “solubility in G1/S (log2)” value with HeLa Kyoto [1] turned out to be 0.00572. The thermal stability score is -1.4 in the data set on HeLa Kyoto [2] (setting [5]) and -3.38 in the data set with HeLa Kyoto [2] (cell cycle stage: mitosis). The “solubility change mitosis (log2)” value with HeLa Kyoto [3] came to 0.0351. The melting temperature in the data set on HeLa Kyoto [4] (cell cycle stage: G1/S) worked out at 57.3 °C; in the data set with HeLa Kyoto [4] (cell cycle stage: mitosis), 56.4 °C.
With “MASSAEGDEGTVVALAGVLQSGFQELSLNKLATSLGASEQALRLIISIFLGYPFALFYRHYLFYKETYLIHLFHTFTGLSIAYFNFGNQLYHSLLCIVLQFLILRLMGRTITAVLTTFCFQMAYLLAGYYYTATGNYDIKWTMPHCVLTLKLIGLAVDYFDGGKDQNSLSSEQQKYAIRGVPSLLEVAGFSYFYGAFLVGPQFSMNHYMKLVQGELIDIPGKIPNSIIPALKRLSLGLFYLVGYTLLSPHITEDYLLTEDYDNHPFWFRCMYMLIWGKFVLYKYVTCWLVTEGVCILTGLGFNGFEEKGKAKWDACANMKVWLFETNPRFTGTIASFNINTNAWVARYIFKRLKFLGNKELSQGLSLLFLALWHGLHSGYLVCFQMEFLIVIVERQAARLIQESPTLSKLAAITVLQPFYYLVQQTIHWLFMGYSMTAFCLFTWDKWLKVYKSIYFLGHIFFLSLLFILPYIHKAMVPRKEKLKKME [LPCAT3]”, the “solubility in G1/S (log2)” value in the data set on HeLa Kyoto [1] was -0.0534. In addition, the results for the thermal stability score in the data set on HeLa Kyoto [2] (setting [5]) and in the data set on HeLa Kyoto [2] (cell cycle stage: mitosis) were 0.0481 and -0.776, respectively. Also, the “solubility change mitosis (log2)” value with HeLa Kyoto [3] was -0.275. Besides, the melting temperature with HeLa Kyoto [4] (cell cycle stage: mitosis) was determined as 55.7 °C.
As to “MASSCAVQVKLELGHRAQVRKKPTVEGFTHDWMVFVRGPEHSNIQHFVEKVVFHLHESFPRPKRVCKDPPYKVEESGYAGFILPIEVYFKNKEEPRKVRFDYDLFLHLEGHPPVNHLRCEKLTFNNPTEDFRRKLLKAGGDPNRSIHTSSSSSSSSSSSSSSSSSSSSSSSSSSSSSSSSSSSSSSSSSSTSFSKPHKLMKEHKEKPSKDSREHKSAFKEPSRDHNKSSKESSKKPKENKPLKEEKIVPKMAFKEPKPMSKEPKPDSNLLTITSGQDKKAPSKRPPISDSEELSAKKRKKSSSEALFKSFSSAPPLILTCSADKKQIKDKSHVKMGKVKIESETSEKKKSTLPPFDDIVDPNDSDVEENISSKSDSEQPSPASSSSSSSSSFTPSQTRQQGPLRSIMKDLHSDDNEEESDEVEDNDNDSEMERPVNRGGSRSRRVSLSDGSDSESSSASSPLHHEPPPPLLKTNNNQILEVKSPIKQSKSDKQIKNGECDKAYLDELVELHRRLMTLRERHILQQIVNLIEETGHFHITNTTFDFDLCSLDKTTVRKLQSYLETSGTS [MLLT3]”, the “solubility in G1/S (log2)” value with HeLa Kyoto [1] is -0.355. For the same sequence, the thermal stability score in the data set with HeLa Kyoto [2] (setting [5]) is -0.0552; in the data set with HeLa Kyoto [2] (cell cycle stage: mitosis), 0.557. The “solubility change mitosis (log2)” value with HeLa Kyoto [3] was determined as 0.411. In addition, the melting temperature was found to be 48.5 °C in the data set with HeLa Kyoto [4] (cell cycle stage: G1/S) and 50.5 °C in the data set with HeLa Kyoto [4] (cell cycle stage: mitosis).
On to “MASSDIQVKELEKRASGQAFELILSPRSKESVPEFPLSPPKKKDLSLEEIQKKLEAAEERRKSHEAEVLKQLAEKREHEKEVLQKAIEENNNFSKMAEEKLTHKMEANKENREAQMAAKLERLREKDKHIEEVRKNKESKDPADETEAD [STMN1]”, for which the “solubility in G1/S (log2)” value in the data set on HeLa Kyoto [1] is 0.635. Besides, the values for the thermal stability score with HeLa Kyoto [2] (setting [5]) and with HeLa Kyoto [2] (cell cycle stage: mitosis) were -6.5 and -5.49, respectively. For the same sequence, the “solubility change mitosis (log2)” value in the data set on HeLa Kyoto [3] was 0.208. Further, the melting temperature in the data set with HeLa Kyoto [4] (cell cycle stage: G1/S) is 56.7 °C; with HeLa Kyoto [4] (cell cycle stage: mitosis), 64.1 °C.
On to “MASSSPDSPCSCDCFVSVPPASAIPAVIFAKNSDRPRDEVQEVVFVPAGTHTPGSRLQCTYIEVEQVSKTHAVILSRPSWLWGAEMGANEHGVCIGNEAVWTKEPVGEGEALLGMDLLRLALERSSSAQEALHVITGLLEHYGQGGNCLEDAAPFSYHSTFLLADRTEAWVLETAGRLWAAQRIQEGARNISNQLSIGTDISAQHPELRTHAQAKGWWDGQGAFDFAQIFSLTQQPVRMEAAKARFQAGRELLRQRQGGITAEVMMGILRDKESGICMDSGGFRTTASMVSVLPQDPTQPCVHFLTATPDPSRSVFKPFIFGMGVAQAPQVLSPTFGAQDPVRTLPRFQTQVDRRHTLYRGHQAALGLMERDQDRGQQLQQKQQDLEQEGLEATQGLLAGEWAPPLWELGSLFQAFVKRESQAYA [SCRN2]”, for which, in the data set on HeLa Kyoto [1], the “solubility in G1/S (log2)” value came out at 0.282. In addition, the thermal stability score worked out at 0.593 in the data set on HeLa Kyoto [2] (setting [5]) and 0.947 in the data set with HeLa Kyoto [2] (cell cycle stage: mitosis). In addition, the “solubility change mitosis (log2)” value in the data set with HeLa Kyoto [3] is -0.201. The melting temperature in the data set with HeLa Kyoto [4] (cell cycle stage: G1/S) worked out at 51 °C; with HeLa Kyoto [4] (cell cycle stage: mitosis), 51.1 °C.
With “MASSSTVPLGFHYETKYVVLSYLGLLSQEKLQEQHLSSPQGVQLDIASQSLDQEILLKVKTEIEEELKSLDKEISEAFTSTGFDRHTSPVFSPANPESSMEDCLAHLGEKVSQELKEPLHKALQMLLSQPVTYQAFRECTLETTVHASGWNKILVPLVLLRQMLLELTRRGQEPLSALLQFGVTYLEDYSAEYIIQQGGWGTVFSLESEEEEYPGITAEDSNDIYILPSDNSGQVSPPESPTVTTSWQSESLPVSLSASQSWHTESLPVSLGPESWQQIAMDPEEVKSLDSNGAGEKSENNSSNSDIVHVEKEEVPEGMEEAAVASVVLPARELQEALPEAPAPLLPHITATSLLGTREPDTEVITVEKSSPATSLFVELDEEEVKAATTEPTEVEEVVPALEPTETLLSEKEINAREESLVEELSPASEKKPVPPSEGKSRLSPAGEMKPMPLSEGKSILLFGGAAAVAILAVAIGVALALRKK [BCL2L13]”, the “solubility in G1/S (log2)” value with HeLa Kyoto [1] stood at 0.337. Also, the thermal stability score was -2.28 in the data set on HeLa Kyoto [2] (setting [5]) and -2.76 in the data set on HeLa Kyoto [2] (cell cycle stage: mitosis). For the same sequence, in the data set with HeLa Kyoto [3], the “solubility change mitosis (log2)” value is -0.255. Moreover, the melting temperature with HeLa Kyoto [4] (cell cycle stage: G1/S) was 53.9 °C; with HeLa Kyoto [4] (cell cycle stage: mitosis), 54.1 °C.
In the case of “MASSVGNVADSTEPTKRMLSFQGLAELAHREYQAGDFEAAERHCMQLWRQEPDNTGVLLLLSSIHFQCRRLDRSAHFSTLAIKQNPLLAEAYSNLGNVYKERGQLQEAIEHYRHALRLKPDFIDGYINLAAALVAAGDMEGAVQAYVSALQYNPDLYCVRSDLGNLLKALGRLEEAKACYLKAIETQPNFAVAWSNLGCVFNAQGEIWLAIHHFEKAVTLDPNFLDAYINLGNVLKEARIFDRAVAAYLRALSLSPNHAVVHGNLACVYYEQGLIDLAIDTYRRAIELQPHFPDAYCNLANALKEKGSVAEAEDCYNTALRLCPTHADSLNNLANIKREQGNIEEAVRLYRKALEVFPEFAAAHSNLASVLQQQGKLQEALMHYKEAIRISPTFADAYSNMGNTLKEMQDVQGALQCYTRAIQINPAFADAHSNLASIHKDSGNIPEAIASYRTALKLKPDFPDAYCNLAHCLQIVCDWTDYDERMKKLVSIVADQLEKNRLPSVHPHHSMLYPLSHGFRKAIAERHGNLCLDKINVLHKPPYEHPKDLKLSDGRLRVGYVSSDFGNHPTSHLMQSIPGMHNPDKFEVFCYALSPDDGTNFRVKVMAEANHFIDLSQIPCNGKAADRIHQDGIHILVNMNGYTKGARNELFALRPAPIQAMWLGYPGTSGALFMDYIITDQETSPAEVAEQYSEKLAYMPHTFFIGDHANMFPHLKKKAVIDFKSNGHIYDNRIVLNGIDLKAFLDSLPDVKIVKMKCPDGGDNADSSNTALNMPVIPMNTIAEAVIEMINRGQIQITINGFSISNGLATTQINNKAATGEEVPRTIIVTTRSQYGLPEDAIVYCNFNQLYKIDPSTLQMWANILKRVPNSVLWLLRFPAVGEPNIQQYAQNMGLPQNRIIFSPVAPKEEHVRRGQLADVCLDTPLCNGHTTGMDVLWAGTPMVTMPGETLASRVAASQLTCLGCLELIAKNRQEYEDIAVKLGTDLEYLKKVRGKVWKQRISSPLFNTKQYTMELERLYLQMWEHYAAGNKPDHMIKPVEVTESA [OGT]”, in the data set with HeLa Kyoto [1], the “solubility in G1/S (log2)” value was 0.302. Further, the thermal stability score in the data set with HeLa Kyoto [2] (setting [5]) is -0.271; in the data set with HeLa Kyoto [2] (cell cycle stage: mitosis), 1.57. For the same sequence, the “solubility change mitosis (log2)” value in the data set on HeLa Kyoto [3] is -0.0669. Besides, the melting temperature with HeLa Kyoto [4] (cell cycle stage: G1/S) worked out at 49.4 °C; in the data set with HeLa Kyoto [4] (cell cycle stage: mitosis) it was 50.3 °C.
